Test results: PMC8016135, “Observation of arenavirus nucleoprotein heptamer assembly” (FEBS Open Bio, 2021)

Target: the molecule itself
Experiment: negative stain transmission electron microscopy

B1: Mopeia virus nucleoprotein (natural protein, UniProt P19239 1-570, looked up)
chain: MSNSKEVKSFLWTQSLRRELSGYCSNIKIQVIKDAQALLHGLDFSEVANVQRLMRKEKRDDSDLKRLRDLNQAVNNLVELKSVQQKNVLRVGTLTSDDLLVLAADLDRLKAKVIRGERPLAAGVYMGNLTAQQLEQRRVLLQMVGMGGGFRAGNTLGDGIVRVWDVRNPELLNNQFGTMPSLTIACMCKQGQADLNDVIQSLSDLGLVYTAKYPNMSDLDKLSQTHPILGIIEPKKSAINISGYNFSLSAAVKAGACLIDGGNMLETIKVTKSNLEGILKAALKVKRSLGMFVSDTPGERNPYENLLYKLCLSGEGWPYIASRTSIVGRAWDNTTVDLSGDVQQNAKPDKGNSNRLAQAQGMPAGLTYSQTMELKDSMLQLDPNAKTWIDIEGRPEDPVEIAIYQPNNGQYIHFYREPTDIKQFKQDSKHSHGIDIQDLFSVQPGLTSAVIESLPKNMVLSCQGADDIRKLLDSQNRRDIKLIDVSMQKDDARKFEDKIWDEYKHLCRMHTGIVTQKKKRGGKEEVTPHCALLDCLMFEAAVIGSPQIPTPRPVLSRDLVFRTGPPRVVL
notes: Nucleoprotein (NP, ~63 kDa) of Mopeia virus (MOPV), full length; also called MOPV-NP; MOPV NP; not shown: thioredoxin, N-terminal, cleaved; His6, N-terminal, cleaved
stoichiometry N: 7
